From US20170081400A1 (CEPHALON, published 2017)

Assays:
[1] = molecular target: T1, human TL1A extracellular domain with N-terminal HIS and FLAG tag (human, UniProt O95150 72-251); experiment: KinExA, TL1A as CBP, free TL1A captured on 320-587-coated PMMA beads; average of two
T1 construct: whole entry named. ~70 kDa fraction purified by gel filtration
T1 sequence: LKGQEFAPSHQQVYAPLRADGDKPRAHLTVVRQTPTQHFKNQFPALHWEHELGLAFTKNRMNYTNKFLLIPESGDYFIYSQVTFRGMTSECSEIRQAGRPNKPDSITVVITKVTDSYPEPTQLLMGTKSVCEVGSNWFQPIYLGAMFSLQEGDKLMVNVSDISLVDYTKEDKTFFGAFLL

[2] = molecular target: T1, human TL1A extracellular domain with …; experiment: KinExA, 320-587 as CBP, free 320-587 captured on TL1A-coated Sepharose beads; average of two
[3] = molecular target: T2, single-site biotinylated human TL1A (human, UniProt O95150 72-251, single-site biotinylated (site not stated)); experiment: competition ELISA: antibody dilutions pre-incubated with biotinylated human TL1A (1 µg/ml), added to plate-coated DcR3/Fc; bound TL1A detected with streptavidin-HRP; blocked partner DcR3/Fc [bottom panel]
T2 construct: construct used for biotinylation not described
T2 sequence: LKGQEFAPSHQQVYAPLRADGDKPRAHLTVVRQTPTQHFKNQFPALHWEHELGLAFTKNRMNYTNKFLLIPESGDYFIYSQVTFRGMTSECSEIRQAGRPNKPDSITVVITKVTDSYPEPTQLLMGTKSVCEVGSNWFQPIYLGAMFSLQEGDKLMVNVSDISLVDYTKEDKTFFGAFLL
Procedure: 1.8. […] DR3/Fc Chimera (R&D Systems) or DcR3/Fc Chimera (R&D Systems) was coated onto a 96-well plate (Maxisorp, Nunc) at a concentration of 2 μg/ml.

[4] = molecular target: T1, human TL1A extracellular domain with …; experiment: KinExA, 320-587 as CBP, free 320-587 captured on TL1A-coated Sepharose beads; repeat 2
dog TL1A = molecular target: T3, dog TL1A (dog); experiment: SPR: 320-587 captured on Protein A, TL1A of the species flowed over
T3 construct: recombinantly produced; whole entry named
T3 chain: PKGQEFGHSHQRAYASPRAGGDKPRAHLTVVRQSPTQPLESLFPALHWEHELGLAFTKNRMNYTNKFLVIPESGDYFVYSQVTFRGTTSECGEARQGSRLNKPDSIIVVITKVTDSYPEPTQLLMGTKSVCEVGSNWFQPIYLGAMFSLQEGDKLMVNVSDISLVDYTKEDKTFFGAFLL

cat TL1A = molecular target: T4, cat TL1A (cat); experiment: as above
T4 construct: recombinantly produced; whole entry named
T4 chain: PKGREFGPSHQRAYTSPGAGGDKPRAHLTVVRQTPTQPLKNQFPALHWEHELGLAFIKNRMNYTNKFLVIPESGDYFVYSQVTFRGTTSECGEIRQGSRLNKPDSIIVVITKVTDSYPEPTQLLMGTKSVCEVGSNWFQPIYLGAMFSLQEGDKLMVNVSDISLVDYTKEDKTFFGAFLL

rabbit TL1A = molecular target: T5, rabbit TL1A (rabbit); experiment: as above
T5 construct: recombinantly produced; whole entry named
T5 chain: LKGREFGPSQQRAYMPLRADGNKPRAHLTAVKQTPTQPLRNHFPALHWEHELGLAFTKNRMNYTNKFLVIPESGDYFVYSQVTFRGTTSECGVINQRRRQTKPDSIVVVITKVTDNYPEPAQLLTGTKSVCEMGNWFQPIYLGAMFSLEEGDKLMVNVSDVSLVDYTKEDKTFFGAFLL

guinea pig TL1A = molecular target: T6, guinea pig TL1A (guinea pig); experiment: as above
T6 construct: recombinantly produced; whole entry named
T6 chain: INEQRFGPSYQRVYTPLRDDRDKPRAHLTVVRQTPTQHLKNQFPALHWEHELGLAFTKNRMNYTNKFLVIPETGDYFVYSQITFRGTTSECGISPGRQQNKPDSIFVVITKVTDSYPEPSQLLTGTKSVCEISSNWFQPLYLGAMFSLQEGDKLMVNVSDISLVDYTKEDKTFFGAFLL

rat TL1A = molecular target: T7, rat TL1A (rat, UniProt Q8K3Y7 73-252); experiment: as above
T7 construct: recombinantly produced; whole entry named
T7 sequence: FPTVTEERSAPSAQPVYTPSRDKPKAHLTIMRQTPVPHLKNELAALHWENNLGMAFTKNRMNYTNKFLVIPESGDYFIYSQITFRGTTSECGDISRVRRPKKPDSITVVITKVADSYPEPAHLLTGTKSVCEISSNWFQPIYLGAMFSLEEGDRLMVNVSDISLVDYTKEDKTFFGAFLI

mouse TL1A = molecular target: T8, mouse TL1A (mouse, UniProt Q5UBV8 73-252); experiment: as above
T8 construct: recombinantly produced; whole entry named
T8 sequence: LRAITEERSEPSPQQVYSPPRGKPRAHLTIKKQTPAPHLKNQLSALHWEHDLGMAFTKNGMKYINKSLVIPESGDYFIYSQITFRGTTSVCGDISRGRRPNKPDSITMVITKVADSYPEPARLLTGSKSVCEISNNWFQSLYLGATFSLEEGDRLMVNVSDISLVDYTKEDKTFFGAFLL

cynomolgus monkey TL1A = molecular target: T9, cynomolgus monkey TL1A (cynomolgus monkey, UniProt O95150 72-251 (human entry), limits assumed); experiment: as above
T9 construct: recombinantly produced; whole entry named
T9 chain: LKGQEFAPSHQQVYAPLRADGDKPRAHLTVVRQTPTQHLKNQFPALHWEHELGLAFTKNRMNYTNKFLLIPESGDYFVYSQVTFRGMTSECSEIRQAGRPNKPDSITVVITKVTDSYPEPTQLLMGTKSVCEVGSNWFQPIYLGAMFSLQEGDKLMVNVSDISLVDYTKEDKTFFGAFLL

[5] = molecular target: T1, human TL1A extracellular domain with …; experiment: KinExA, TL1A as CBP, free TL1A captured on 320-587-coated PMMA beads; repeat 2
[6] = molecular target: T1, human TL1A extracellular domain with …; experiment: KinExA, 320-587 as CBP, free 320-587 captured on TL1A-coated Sepharose beads; repeat 1
[7] = molecular target: T1, human TL1A extracellular domain with …; experiment: KinExA, TL1A as CBP, free TL1A captured on 320-587-coated PMMA beads; repeat 1
[8] = molecular target: T10, human TL1A extracellular domain with N-terminal HIS and FLAG tag (human, UniProt O95150 72-251); experiment: KinExA, Sepharose beads coated with TL1A, 320-587 as the CBP, assay 1
T10 construct: the whole entry is named; also called TNFSF15
T10 sequence: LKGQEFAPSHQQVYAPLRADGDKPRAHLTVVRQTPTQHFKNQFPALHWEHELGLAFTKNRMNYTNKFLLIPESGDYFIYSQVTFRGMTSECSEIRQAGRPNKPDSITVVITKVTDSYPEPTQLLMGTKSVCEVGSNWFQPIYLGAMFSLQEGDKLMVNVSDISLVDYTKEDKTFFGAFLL

[9] = molecular target: T10, human TL1A extracellular domain with …; experiment: KinExA, Sepharose beads coated with TL1A, 320-587 as the CBP, average of 5 assays (SD 8.33)
[10] = molecular target: T10, human TL1A extracellular domain with …; experiment: KinExA, Sepharose beads coated with TL1A, 320-587 as the CBP, assay 5
[11] = molecular target: T10, human TL1A extracellular domain with …; experiment: KinExA, Sepharose beads coated with TL1A, 320-587 as the CBP, assay 4
[12] = molecular target: T10, human TL1A extracellular domain with …; experiment: SPR Run 8, antibody on Protein A, TL1A 5 ug/mL, timepoint 590
Text: (§1) 1.5. Antibody expression and antigen binding as determined by SPR. Using a CM5 sensor chip (GE Healthcare) Protein A (Pierce) was coupled to the chip surface using an amine coupling kit (GE Healthcare). Protein A was coupled on flow cell 1 and 2 (or alternatively 3 and 4) using a BIACORE® T200. […] The amount of supernatant or purified protein (as well as the concentration) injected during the capture stage varied between runs and is specified in the header of the Tables 3-11. At the end of injection of the supernatant or purified antibody the change in response units was measured. This value was reported as Capture Level in Tables 3-11. […] The response units were measured prior to the end of the dissociation phase. […] The sensorgrams were double referenced (flow cell 2 is subtracted from flow cell 1 and a buffer blank). As there were a large number of antibody variants to screen, these were screened across different runs (Tables 3-11). […] A summary of the conditions used in each run is below:
(§2) 2.1. […] In some experiment the antibodies were purified using Protein A chromatography (See 1.4) and purified antibodies were used in BIACORE® (GE Healthcare) experiments.

[13] = molecular target: T10, human TL1A extracellular domain with …; experiment: KinExA, PMMA beads coated with 320-587, TL1A as the CBP, assay 3
Procedure: (§3) Using the time to reach equilibrium determined above, all curves were allowed to come to equilibrium in a 25° C. incubator for 3 days.

[14] = molecular target: T10, human TL1A extracellular domain with …; experiment: KinExA, PMMA beads coated with 320-587, TL1A as the CBP, assay 2
Procedure: as §3

[15] = molecular target: T10, human TL1A extracellular domain with …; experiment: SPR Run 8, antibody on Protein A, TL1A 5 ug/mL, timepoint 44
Text: as §1, §2

[16] = molecular target: T10, human TL1A extracellular domain with …; experiment: KinExA, Sepharose beads coated with TL1A, 320-587 as the CBP, assay 2
[17] = molecular target: T10, human TL1A extracellular domain with …; experiment: KinExA, PMMA beads coated with 320-587, TL1A as the CBP, average of 3 assays (SD 13.5)
Procedure: as §3

[18] = molecular target: T10, human TL1A extracellular domain with …; experiment: KinExA, PMMA beads coated with 320-587, TL1A as the CBP, assay 1
Procedure: as §3

[19] = molecular target: T10, human TL1A extracellular domain with …; experiment: KinExA, Sepharose beads coated with TL1A, 320-587 as the CBP, assay 3
[20] = molecular target: T10, human TL1A extracellular domain with …; experiment: cell-based or functional assay

B1: 320-587 (antibody, name in Kabat numbering, V domains shown)
VH: QVQLVQSGAEVKKPGASVKVSCKASGYTFTSYDINWVRQAPGQGLEWMGWLNPNSGYTGYAQKFQGRVTMTADRSTSTAYMELSSLRSEDTAVYYCAREVPETAAFEYWGQGTLVTVSS
VL: QSVLTQPPSVSGAPGQRVTISCTSSSSDIGAGLGVHWYQQLPGTAPKLLIEGYYNRPSGVPDRFSGSKSGTSASLTITGLLPEDEGDYYCQSWDGTLSALFGGGTKLTVLG
notes: human IgG1, lambda
In the case of B1, the kon [1] is reported as 593000 M⁻¹ s⁻¹, the kon [2] is reported as 790000 M⁻¹ s⁻¹ and the “IC50 (read off the curve)” value [3] is reported as ~1 µg/mL. For the same binder, the kon [4] was 745000 M⁻¹ s⁻¹, the binding result (dog TL1A) was “binds” and the binding result (cat TL1A) was “binds”. B1: binds (rabbit TL1A); binds (guinea pig TL1A); binds (rat TL1A). The binding result (mouse TL1A) was “binds”, the binding result (cynomolgus monkey TL1A) was “binds” and the kon [5] was 574000 M⁻¹ s⁻¹. For the same binder, the kon [6] was 835000 M⁻¹ s⁻¹ and the kon [7] was 611000 M⁻¹ s⁻¹.

B2: 320-587 (antibody, name in Kabat numbering, V domains shown)
VH: QVQLVQSGAEVKKPGASVKVSCKASGYTFTSYDINWVRQAPGQGLEWMGWLNPNSGYTGYAQKFQGRVTMTADRSTSTAYMELSSLRSEDTAVYYCAREVPETAAFEYWGQGTLVTVSS
VL: QSVLTQPPSVSGAPGQRVTISCTSSSSDIGAGLGVHWYQQLPGTAPKLLIEGYYNRPSGVPDRFSGSKSGTSASLTITGLLPEDEGDYYCQSWDGTLSALFGGGTKLTVLG
notes: full-length human IgG1, lambda
B2 gave a Kd [8] of 0.0404 nM, a Kd [9] of 0.041 nM and a Kd [10] of 0.0337 nM. For the same binder, the Kd [11] was 0.0324 nM, the “TL1A Binding Level (Late)” value [12] was 122 RU and the Kd [13] was 0.0341 nM. The Kd [14] was 0.0571 nM, the “TL1A Binding Level (Early)” value [15] was 123 RU and the Kd [16] was 0.052 nM. For the same binder, the Kd [17] was 0.0415 nM, the Kd [18] was 0.0334 nM and the Kd [19] was 0.0463 nM. For the same binder, the “Antibody IC50, TL1A induced caspase potency assay in TF-1 cells” value [20] was 0.001 µg/mL and the “Fold improvement over 320-179, TL1A induced caspase potency assay in TF-1 cells” value [20] was 40 fold.
